Where only a bound is given, the exact number is not on record here.

The Kd is a measure of binding affinity in units of concentration. Low readings indicate a tighter complex, high ones a looser complex.

Assay [1] concerns the target T1, mouse glutamate receptor A4 amino-terminal domain (mouse, UniProt Q9Z2W8 21-420).
T1 sequence (looked up): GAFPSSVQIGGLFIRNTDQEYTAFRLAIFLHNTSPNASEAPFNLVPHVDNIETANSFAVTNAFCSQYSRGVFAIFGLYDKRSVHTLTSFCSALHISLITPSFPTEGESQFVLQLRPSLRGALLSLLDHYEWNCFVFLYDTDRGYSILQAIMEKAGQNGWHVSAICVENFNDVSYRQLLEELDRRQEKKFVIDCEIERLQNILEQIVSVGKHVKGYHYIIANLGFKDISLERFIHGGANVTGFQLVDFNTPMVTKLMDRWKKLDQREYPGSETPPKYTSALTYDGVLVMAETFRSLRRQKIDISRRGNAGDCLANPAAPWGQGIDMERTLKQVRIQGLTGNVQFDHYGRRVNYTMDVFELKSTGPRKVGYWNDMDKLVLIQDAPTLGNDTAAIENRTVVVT
Nature of the assay: SPR. (Surface plasmon resonance follows binding to a sensor surface in real time, without labels.)

Assay [2] concerns the target T2, human glutamate receptor D2 amino-terminal domain (human, UniProt O43424 24-440).
T2 sequence (looked up): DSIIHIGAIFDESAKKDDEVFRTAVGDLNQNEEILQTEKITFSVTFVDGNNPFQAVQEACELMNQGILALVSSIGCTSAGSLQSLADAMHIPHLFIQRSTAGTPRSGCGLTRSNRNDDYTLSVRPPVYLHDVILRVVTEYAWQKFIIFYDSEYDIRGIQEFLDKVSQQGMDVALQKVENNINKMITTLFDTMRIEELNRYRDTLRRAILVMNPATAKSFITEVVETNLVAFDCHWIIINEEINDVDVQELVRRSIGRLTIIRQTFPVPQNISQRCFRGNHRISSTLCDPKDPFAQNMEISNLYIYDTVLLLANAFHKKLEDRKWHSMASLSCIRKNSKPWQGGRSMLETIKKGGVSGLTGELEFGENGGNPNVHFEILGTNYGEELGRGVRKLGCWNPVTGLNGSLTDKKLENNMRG
As to the kind of experiment: SPR.

B1: pentraxin domain of human neuronal pentraxin-1, biotinylated on a C-terminal Avitag (immobilised in SPR) (domain or fragment, UniProt Q15818 224-431, looked up)
chain: PGDKFQLTFPLRTNYMYAKVKKSLPEMYAFTVCMWLKSSATPGVGTPFSYAVPGQANELVLIEWGNNPMEILINDKVAKLPFVINDGKWHHICVTWTTRDGVWEAYQDGTQGGSGENLAPYHPIKPQGVLVLGQEQDTLGGGFDATQAFVGELAHFNIWDRKLTPGEVYNLATCSTKALSGNVIAWAESHIEIYGGATKWTFEACRQI
modifications: biotin on the Avitag (in vivo biotinylation by BirA)
B1: in assay [1], binding was characterised by a dissociation constant (Kd) of 11 ± 0.9 µM.

B2: Cbln1, biotinylated on a C-terminal Avitag (immobilised in SPR) (natural protein, UniProt P23435 22-193, looked up)
chain: QNETEPIVLEGKCLVVCDSNPTSDPTGTALGISVRSGSAKVAFSAIRSTNHEPSEMSNRTMIIYFDQVLVNIGNNFDSERSTFIAPRKGIYSFNFHVVKVYNRQTIQVSLMLNGWPVISAFAGDQDVTREAASNGVLIQMEKGDRAYLKLERGNLMGGWKYSTFSGFLVFPL
modifications: biotin on the Avitag (in vivo biotinylation by BirA)
Consider B2, for which the Kd in assay [2] is more than 100 µM.

(Values after article PMC7116145 (Science (New York, N.Y.), 2020).)
